Experimental data published in publication PMC9628201.

Molecular target: SARS-CoV-2 WA.1 Spike-6P trimer (SARS-CoV-2 (WA.1))
Test: cryo-EM structure

Substance SARS-CoV-2 WA.1 Spike-6P trimer has a stoichiometry N of 3.
